# Laboratory results reported in publication PMC10448178.
# Target: T1, MntR (Bacillus subtilis) (UniProt P54512)
# T1 sequence: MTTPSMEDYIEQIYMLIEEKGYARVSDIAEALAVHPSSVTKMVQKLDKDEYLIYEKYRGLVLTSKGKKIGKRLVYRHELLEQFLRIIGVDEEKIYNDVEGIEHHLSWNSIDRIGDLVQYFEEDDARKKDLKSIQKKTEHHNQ
# Experiment: EMSA
# Details: 10 mM Tris-HCl pH 7.5, 43 mM NaCl, 1 mM MnCl2, 1 mM DTT, 5% glycerol, 1 ug poly[dI-dC] per 14 ul, 23 C 15 min; 5% PAGE in 40 mM Tris-acetate at 4 C
row,Sequence,binding
1,ATGAAGCTTCAAAGAGTTTCCTTAAGGCAAATTATTTTATCTACATCATATGACCATCCCGGTTTCTTGTCAACCGAAAATGTTCAAAATACACTTCTGAATTTTTCCCTGTTATGTAACATGATATGTAGGGATTCGTGATAAGGTCCCATATAAAAAGACATCGTTTCATTTCGAAACGATGCCTCCTGTATCTAATGAGTCTAGGCTTCCTTCCGCAGCCCGCGGAATATAAGGCCCAGCAAGAACACGAAGATGGCTGCCCCGATGATGGCCGGGA (double strand) [PmntH del1],binds
2,ATGAAGCTTTTATCTACATCATATGACCATCCCGGTTTCTTGTCAACCGAAAATGTTCAAAATACACTTCTGAATTTTTCCCTGTTATGTAACATGATATGTAGGGATTCGTGATAAGGTCCCATATAAAAAGACATCGTTTCATTTCGAAACGATGCCTCCTGTATCTAATGAGTCTAGGCTTCCTTCCGCAGCCCGCGGAATATAAGGCCCAGCAAGAACACGAAGATGGCTGCCCCGATGATGGCCGGGA (double strand) [PmntH del2],no binding

# Target: T2, AhrC (Bacillus subtilis) (UniProt P17893)
# T2 sequence: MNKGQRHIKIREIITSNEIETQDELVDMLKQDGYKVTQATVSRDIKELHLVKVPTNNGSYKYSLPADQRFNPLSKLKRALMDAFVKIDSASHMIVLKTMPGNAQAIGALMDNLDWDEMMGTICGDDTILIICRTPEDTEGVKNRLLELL
# Experiment: EMSA
# Details: 10 mM Tris-HCl pH 7.5, 43 mM NaCl, 1 mM MnCl2, 1 mM DTT, 5% glycerol, 1 ug poly[dI-dC] per 14 ul, 23 C 15 min; 5% PAGE in 40 mM Tris-acetate at 4 C
row,Sequence,binding
1,TTTAGTTTGGCAGGTTTTATTCTGGGACCATGGTAGGTTTTCTGACAAAAGTATTTCACAAACTGATATGATTCACTTATAATGAAATAAAGTTCAAAAATTCGGAAGCTTCCG (double strand) [PpxpA probe 5],binds more weakly
2,GCGCTTTCAGCGAATGTGTGGAAAAAATGTTTCGTTTTTTATTCGCTGTGTGATTTTGCGTAATATTTACAATTCGATAGAATGCGAGAAGCACTGGTGTCCTTGGGTTTGATGGGATTTTTGGCGGAGCAAATAAATTGGATGAGAGAAAAAGTGTTCCTTCGTCACTATTTTTCTGTGGCGGGTGAATCATGTTTCTGTAGACCCACTGCGGATCAGCTTTGTAAGATAATAATAGGAAAATGTGAGCGAGAGGAGGTTTTGTATGGAGAGATATGATGAACTG (double strand) [PmneS],binds
3,CCGAAGCTTTCTCCTAAATCACAGTTTAAATCAATCTGAAACACAGAATCCCTCCTGCCAAAGCAAACGATATGCTTTATGTCATTTATTGTCCCGAAATTCGGAACGACTATTCCGAATTTTTGAACTTTATTTCATTATAAGTGAATCATATCAGTTTGTGAAATACTTTTGTCAGAAAACCTACCATGGTCCCAGAATAAAACCTGCCAAACTAAAGAATTCGAT (double strand) [PpxpA probe 3],binds more weakly
4,CCGAAGCTTTCTCCTAAATCACAGTTTAAATCAATCTGAAACACAGAATCCCTCCTGCCAAAGCAAACGATATGCTTTATGTCATTTATTGTCCCGAAATTCGGAACGACTATTCCGAATTTTTGAACTTTATTTCATTATAAGTGAATCATATCAGTTTGTGAAATACTTTTGTCAGAAAACCTACCATGGTCCCAGAATAAAACCTGCCAAACTAAAAAAGAGAGTCCATCTTAGGACTCTGAATTCGAT (double strand) [PpxpA probe 2],binds
